According to patent US20160355553A1 (Janssen / Centocor, published 2016):

What was measured:
[1] = target: H3 Mini-HA cluster 1+2 (influenza A virus H3N2, UniProt O11283 17-566); experiment: FACS on HEK293F [D00010 FIG. 8B]
[2] = target: H3 Mini-HA cluster 1 (influenza A virus H3N2, UniProt O11283 17-566); experiment: FACS on HEK293F [D00010 FIG. 8B]
[3] = target: H3 Mini-HA cluster 1+6 (influenza A virus H3N2, UniProt O11283 17-566); experiment: FACS on HEK293F [D00010 FIG. 8B]
[4] = target: H3 Mini-HA cluster 1+4 (influenza A virus H3N2, UniProt O11283 17-566); experiment: FACS on HEK293F [D00010 FIG. 8B]
[5] = target: H3 Mini-HA cluster 1+7 (influenza A virus H3N2, UniProt O11283 17-566); experiment: FACS on HEK293F [D00010 FIG. 8B]
[6] = target: H3 Mini-HA cluster 1+3 (influenza A virus H3N2, UniProt O11283 17-566); experiment: FACS on HEK293F [D00010 FIG. 8B]
[7] = target: H3 Mini-HA cluster 1+8 (influenza A virus H3N2, UniProt O11283 17-566); experiment: FACS on HEK293F [D00010 FIG. 8B]
[8] = target: H3-mini4-cl9+10+11+12+14 (influenza A virus H3N2, UniProt O11283 17-566); experiment: FACS on HEK293F [D00012 FIG. 9B]
[9] = target: H3mini2-cl9+10+11-GCN4 (influenza A virus H3N2); experiment: FACS on HEK293F [D00012 FIG. 9B]
[10] = target: H3-mini2-cl9+10+11+13-GCN4 (influenza A virus H3N2); experiment: FACS on HEK293F [D00012 FIG. 9B]
[11] = target: H3-mini2-cl9+10+11+13-tri (influenza A virus H3N2); experiment: FACS on HEK293F [D00012 FIG. 9B]
[12] = target: H3-mini2-cl9+10+11+12-GCN4 (influenza A virus H3N2, UniProt O11283 17-566); experiment: FACS on HEK293F [D00012 FIG. 9B]
[13] = target: H3-mini2-cl9+10+11 (influenza A virus H3N2, UniProt O11283 17-566); experiment: FACS on HEK293F [D00012 FIG. 9B]
[14] = target: H3-mini2-cl9+10+11+12-tri (influenza A virus H3N2, UniProt O11283 17-566); experiment: FACS on HEK293F [D00012 FIG. 9B]
[15] = target: H3-mini2 (influenza A virus H3N2, UniProt O11283 17-566); experiment: FACS on HEK293F [D00012 FIG. 9B]
[16] = target: H3-mini2-cl9+10+11+13 (influenza A virus H3N2, UniProt O11283 17-566); experiment: FACS on HEK293F [D00012 FIG. 9B]
[17] = target: H3-mini2-cl9+10+12 (influenza A virus H3N2, UniProt O11283 17-566); experiment: FACS on HEK293F [D00012 FIG. 9B]
[18] = target: H3-mini2-cl9+10+11-tri (influenza A virus H3N2); experiment: FACS on HEK293F [D00012 FIG. 9B]
[19] = target: H3-mini2-cl9+13 (influenza A virus H3N2, UniProt O11283 17-566); experiment: FACS on HEK293F [D00012 FIG. 9B]
[20] = target: H3-mini2-cl9+11 (influenza A virus H3N2, UniProt O11283 17-566); experiment: FACS on HEK293F [D00012 FIG. 9B]
[21] = target: H3-mini2-cl9+10+11+12 (influenza A virus H3N2, UniProt O11283 17-566); experiment: FACS on HEK293F [D00012 FIG. 9B]
[22] = target: H3-mini2-cl9+10 (influenza A virus H3N2, UniProt O11283 17-566); experiment: FACS on HEK293F [D00012 FIG. 9B]
[23] = target: H3-mini3-cl9+10+11+12+14 (influenza A virus H3N2, UniProt O11283 17-566); experiment: FACS on HEK293F [D00012 FIG. 9B]
[24] = target: H3 Full-length A/Hong Kong/1/1968 (influenza A virus H3N2, UniProt Q91MA7 17-566); experiment: FACS on HEK293F [D00014 FIG. 10B]
[25] = target: mini1 cluster11 (A/Brisbane/59/2007) (influenza A virus H1N1, UniProt A8C8J4 18-565); experiment: FACS on HEK293F
[26] = target: mini3 cluster11 (A/Brisbane/59/2007) (influenza A virus H1N1, UniProt A8C8J4 18-565); experiment: FACS on HEK293F
[27] = target: mini2 cluster11 (A/Brisbane/59/2007) (influenza A virus H1N1, UniProt A8C8J4 18-565); experiment: FACS on HEK293F

B1: CR6261 (antibody, V domains shown)
VH: EVQLVESGAEVKKPGSSVKVSCKASGGPFRSYAISWVRQAPGQGPEWMGGIIPIFGTTKYAPKFQGRVTITADDFAGTVYMELSSLRSEDTAMYYCAKHMGYQVRETMDVWGKGTTVTVSS
VL: QSVLTQPPSVSAAPGQKVTISCSGSSSNIGNDYVSWYQQLPGTAPKLLIYDNNKRPSGIPDRFSGSKSGTSATLGITGLQTGDEANYYCATWDRRPTAYVVFGGGTKLTVLG
binding result [1]: no binding (tested: 5 ug/ml) | binding result [2]: no binding (tested: 5 ug/ml) | binding result [3]: no binding (tested: 5 ug/ml) | binding result [4]: no binding (tested: 5 ug/ml) | binding result [5]: no binding (tested: 5 ug/ml) | binding result [6]: no binding (tested: 5 ug/ml) | binding result [7]: no binding (tested: 5 ug/ml) | binding result [8]: no binding (tested: 5 ug/ml) | binding result [9]: no binding (tested: 5 ug/ml) | binding result [10]: no binding (tested: 5 ug/ml) | binding result [11]: no binding (tested: 5 ug/ml) | binding result [12]: no binding (tested: 5 ug/ml) | binding result [13]: no binding (tested: 5 ug/ml) | binding result [14]: no binding (tested: 5 ug/ml) | binding result [15]: no binding (tested: 5 ug/ml) | binding result [16]: no binding (tested: 5 ug/ml) | binding result [17]: no binding (tested: 5 ug/ml) | binding result [18]: no binding (tested: 5 ug/ml) | binding result [19]: no binding (tested: 5 ug/ml) | binding result [20]: no binding (tested: 5 ug/ml) | binding result [21]: no binding (tested: 5 ug/ml) | binding result [22]: no binding (tested: 5 ug/ml) | binding result [23]: no binding (tested: 5 ug/ml) | binding result [24]: no binding (tested: 5 ug/ml) | binding result [25]: binds | binding result [26]: binds | binding result [27]: binds
